Experimental data reported in publication PMC4337483 (Journal of immunology (Baltimore, Md. : 1950), 2015).

Key:
[1] = target: BTN3A1 B30.2 domain (BTN3A1 residues 310-513) (Homo sapiens, UniProt O00481); test: isothermal titration calorimetry; assay type: binding
[2] = target: BTN3A1 residues 310-513 (purified, His tag) (human) (UniProt O00481); test: ITC
[3] = target: 3A1v2 cytoplasmic tail (protein used in ITC) (human); test: ITC

Row | Molecule | Kd [1] [nM] | Kd [2] [nM] | stoichiometry N [2] | Kd [3] [nM]
1 | C=C(C)CCO[P@@](=O)(O)OP(=O)(O)O [IPP] | 672000 | – | – | –
2 | periplakin residues 133-530 (PPL BamH1, purified, His tag) (domain or fragment) DPQVNWAALVEEKLDKLNNQSFGTDLPLVDHQVEEHNIFHNEVKAIGPHLAKDGDKEQNSELRAKYQKLLAASQARQQHLSSLQDYMQRCTNELYWLDQQAKGRMQYDWSDRNLDYPSRRRQYENFINRNLEAKEERINKLHSEGDQLLAAEHPGRNSIEAHMEAVHADWKEYLNLLICEESHLKYMEDYHQFHEDVKDAQELLRKVDSDLNQKYGPDFKDRYQIELLLRELDDQEKVLDKYEDVVQGLQKRGQQVVPLKYRRETPLKPIPVEALCDFEGEQGLISRGYSYTLQKNNGESWELMDSAGNKLIAPAVCFVIPPTDPEALALADSLGSQYRSVRQKAAGSKRTLQQRYEVLKTENPGDASDLQGRQLLAGLDKVASDLDRQEKAITGILR | – | 2100 | 1 | 580
